The labels stand for the following.
B1: SARS2 (enzyme, Homo sapiens, UniProt Q9NP81 35-518, looked up)
chain: TTEKRNRNLLYEYAREGYSALPQLDIERFCACPEEAAHALELRKGELRSADLPAIISTWQELRQLQEQIRSLEEEKAAVTEAVRALLANQDSGEVQQDPKYQGLRARGREIRKELVHLYPREAQLEEQFYLQALKLPNQTHPDVPVGDESQARVLHMVGDKPVFSFQPRGHLEIGEKLDIIRQKRLSHVSGHRSYYLRGAGALLQHGLVNFTFNKLLRRGFTPMTVPDLLRGAVFEGCGMTPNANPSQIYNIDPARFKDLNLAGTAEVGLAGYFMDHTVAFRDLPVRMVCSSTCYRAETNTGQEPRGLYRVHHFTKVEMFGVTGPGLEQSSQLLEEFLSLQMEILTELGLHFRVLDMPTQELGLPAYRKFDIEAWMPGRGRFGEVTSASNCTDFQSRRLHIMFQTEAGELQFAHTVNATACAVPRLLIALLESNQQKDGSVLVPPALQSYLGTDRITAPTHVPLQYIGPNQPRKPGLPGQPAVS
notes: Endogenous protein found by proximity labelling/MS; also called Serine -- tRNA ligase, mitochondrial
B2: CPEB4 (other, Homo sapiens, UniProt Q17RY0-2 1-712, looked up)
chain: MGDYGFGVLVQSNTGNKSAFPVRFHPHLQPPHHHQNATPSPAAFINNNTAANGSSAGSAWLFPAPATHNIQDEILGSEKAKSQQQEQQDPLEKQQLSPSPGQEAGILPETEKAKSEENQGDNSSENGNGKEKIRIESPVLTGFDYQEATGLGTSTQPLTSSASSLTGFSNWSAAIAPSSSTIINEDASFFHQGGVPAASANNGALLFQNFPHHVSPGFGGSFSPQIGPLSQHHPHHPHFQHHHSQHQQQRRSPASPHPPPFTHRNAAFNQLPHLANNLNKPPSPWSSYQSPSPTPSSSWSPGGGGYGGWGGSQGRDHRRGLNGGITPLNSISPLKKNFASNHIQLQKYARPSSAFAPKSWMEDSLNRADNIFPFPDRPRTFDMHSLESSLIDIMRAENDTIKARTYGRRRGQSSLFPMEDGFLDDGRGDQPLHSGLGSPHCFSHQNGERVERYSRKVFVGGLPPDIDEDEITASFRRFGPLIVDWPHKAESKSYFPPKGYAFLLFQDESSVQALIDACIEEDGKLYLCVSSPTIKDKPVQIRPWNLSDSDFVMDGSQPLDPRKTIFVGGVPRPLRAVELAMIMDRLYGGVCYAGIDTDPELKYPKGAGRVAFSNQQSYIAAISARFVQLQHGEIDKRVEVKPYVLDDQLCDECQGARCGGKFAPFFCANVTCLQYYCEYCWAAIHSRAGREFHKPLVKEGGDRPRHISFRWN
notes: Endogenous protein found by proximity labelling/MS
B3: ALDH1B1 (enzyme, Homo sapiens, UniProt P30837 18-517, looked up)
chain: RYSSAAALPSPILNPDIPYNQLFINNEWQDAVSKKTFPTVNPTTGEVIGHVAEGDRADVDRAVKAAREAFRLGSPWRRMDASERGRLLNRLADLVERDRVYLASLETLDNGKPFQESYALDLDEVIKVYRYFAGWADKWHGKTIPMDGQHFCFTRHEPVGVCGQIIPWNFPLVMQGWKLAPALATGNTVVMKVAEQTPLSALYLASLIKEAGFPPGVVNIITGYGPTAGAAIAQHVDVDKVAFTGSTEVGHLIQKAAGDSNLKRVTLELGGKSPSIVLADADMEHAVEQCHEALFFNMGQCCCAGSRTFVEESIYNEFLERTVEKAKQRKVGNPFELDTQQGPQVDKEQFERVLGYIQLGQKEGAKLLCGGERFGERGFFIKPTVFGGVQDDMRIAKEEIFGPVQPLFKFKKIEEVVERANNTRYGLAAAVFTRDLDKAMYFTQALQAGTVWVNTYNIVTCHTPFGGFKESGNGRELGEDGLKAYTEVKTVTIKVPQKNS
notes: Endogenous protein found by proximity labelling/MS; also called Aldehyde dehydrogenase X, mitochondrial
B4: MAP4K4 (enzyme, Homo sapiens, UniProt O95819-4 2-1165, looked up)
chain: ANDSPAKSLVDIDLSSLRDPAGIFELVEVVGNGTYGQVYKGRHVKTGQLAAIKVMDVTEDEEEEIKLEINMLKKYSHHRNIATYYGAFIKKSPPGHDDQLWLVMEFCGAGSITDLVKNTKGNTLKEDWIAYISREILRGLAHLHIHHVIHRDIKGQNVLLTENAEVKLVDFGVSAQLDRTVGRRNTFIGTPYWMAPEVIACDENPDATYDYRSDLWSCGITAIEMAEGAPPLCDMHPMRALFLIPRNPPPRLKSKKWSKKFFSFIEGCLVKNYMQRPSTEQLLKHPFIRDQPNERQVRIQLKDHIDRTRKKRGEKDETEYEYSGSEEEEEEVPEQEGEPSSIVNVPGESTLRRDFLRLQQENKERSEALRRQQLLQEQQLREQEEYKRQLLAERQKRIEQQKEQRRRLEEQQRREREARRQQEREQRRREQEEKRRLEELERRRKEEEERRRAEEEKRRVEREQEYIRRQLEEEQRHLEVLQQQLLQEQAMLLHDHRRPHPQHSQQPPPPQQERSKPSFHAPEPKAHYEPADRAREVPVRTTSRSPVLSRRDSPLQGSGQQNSQAGQRNSTSIEPRLLWERVEKLVPRPGSGSSSGSSNSGSQPGSHPGSQSGSGERFRVRSSSKSEGSPSQRLENAVKKPEDKKEVFRPLKPAGEVDLTALAKELRAVEDVRPPHKVTDYSSSSEESGTTDEEDDDVEQEGADESTSGPEDTRAASSLNLSNGETESVKTMIVHDDVESEPAMTPSKEGTLIVRQTQSASSTLQKHKSSSSFTPFIDPRLLQISPSSGTTVTSVVGFSCDGMRPEAIRQDPTRKGSVVNVNPTNTRPQSDTPEIRKYKKRFNSEILCAALWGVNLLVGTESGLMLLDRSGQGKVYPLINRRRFQQMDVLEGLNVLVTISGKKDKLRVYYLSWLRNKILHNDPEVEKKQGWTTVGDLEGCVHYKVVKYERIKFLVIALKSSVEVYAWAPKPYHKFMAFKSFGELVHKPLLVDLTVEEGQRLKVIYGSCAGFHAVDVDSGSVYDIYLPTHVRKNPHSMIQCSIKPHAIIILPNTDGMELLVCYEDEGVYVNTYGRITKDVVLQWGEMPTSVAYIRSNQTMGWGEKAIEIRSVETGHLDGVFMHKRAQRLKFLCERNDKVFFASVRSGGSSQVYFMTLGRTSLLSW
notes: as for B2
B5: FLII (other, Homo sapiens, UniProt Q13045-2 1-1214, looked up)
chain: MEATGVLPFVRGVDLSGNDFKGGYFPENVKAMTSLRWLKLNRTGLCYLPEELAALQKLEHLSVSHNNLTTLHGELSSLPSLRAIVARANSLKNSGVPDDIFKLDDLSVLDLSHNQLTECPRELENAKNMLVLNLSHNRQLPAMTALQTLHLRSTQRTQSNLPTSLEGLSNLADVDLSCNDLTRVPECLYTLPSLRRLNLSSNQITELSLCIDQWVHVETLNLSRNQLTSLPSAICKLSKLKKLYLNSNKLDFDGLPSGIGKLTNLEEFMAANNNLELVPESLCRCPKLRKLVLNKNHLVTLPEAIHFLTEIEVLDVRENPNLVMPPKPADRAAEWYNIDFSLQNQLRLAGASPATVAAAAAGSGPKDPMARKMRLRRRKDSAQDDQAKQVLKGMSDVAQEKNKKQEESADARAPSGKVRRWDQGLEKPRLDYSEFFTEDVGQLPGLTIWQIENFVPVLVEEAFHGKFYEADCYIVLKTFLDDSGSLNWEIYYWIGGEATLDKKACSAIHAVNLRNYLGAECRTVREEMGDESEEFLQVFDNDISYIEGGTASGFYTVEDTHYVTRMYRVYGKKNIKLEPVPLKGTSLDPRFVFLLDRGLDIYVWRGAQATLSSTTKARLFAEKINKNERKGKAEITLLVQGQELPEFWEALGGEPSEIKKHVPEDFWPPQPKLYKVGLGLGYLELPQINYKLSVEHKQRPKVELMPRMRLLQSLLDTRCVYILDCWSDVFIWLGRKSPRLVRAAALKLGQELCGMLHRPRHATVSRSLEGTEAQVFKAKFKNWDDVLTVDYTRNAEAVLQSPGLSGKVKRDAEKKDQMKADLTALFLPRQPPMSLAEAEQLMEEWNEDLDGMEGFVLEGKKFARLPEEEFGHFYTQDCYVFLCRYWVPVEYEEEEKKEDKEEKAEGKEGEEATAEAEEKQPEEDFQCIVYFWQGREASNMGWLTFTFSLQKKFESLFPGKLEVVRMTQQQENPKFLSHFKRKFIIHRGKRKAVQGAQQPSLYQIRTNGSALCTRCIQINTDSSLLNSEFCFILKVPFESEDNQGIVYAWVGRASDPDEAKLAEDILNTMFDTSYSKQVINEGEEPENFFWVGIGAQKPYDDDAEYMKHTRLFRCSNEKGYFAVTEKCSDFCQDDLADDDIMLLDNGQEVYMWVGTQTSQVEIKLSLKACQVYIQHMRSKEHERPRRLRLVRKGNEQHAFTRCFHAWSAFCKALA
notes: Endogenous protein found by proximity labelling/MS; also called Protein flightless-1 homolog
B6: SPTLC1 (enzyme, Homo sapiens, UniProt O15269 1-473, looked up)
chain: MATATEQWVLVEMVQALYEAPAYHLILEGILILWIIRLLFSKTYKLQERSDLTVKEKEELIEEWQPEPLVPPVPKDHPALNYNIVSGPPSHKTVVNGKECINFASFNFLGLLDNPRVKAAALASLKKYGVGTCGPRGFYGTFDVHLDLEDRLAKFMKTEEAIIYSYGFATIASAIPAYSKRGDIVFVDRAACFAIQKGLQASRSDIKLFKHNDMADLERLLKEQEIEDQKNPRKARVTRRFIVVEGLYMNTGTICPLPELVKLKYKYKARIFLEESLSFGVLGEHGRGVTEHYGINIDDIDLISANMENALASIGGFCCGRSFVIDHQRLSGQGYCFSASLPPLLAAAAIEALNIMEENPGIFAVLKEKCGQIHKALQGISGLKVVGESLSPAFHLQLEESTGSREQDVRLLQEIVDQCMNRSIALTQARYLEKEEKCLPPPSIRVVVTVEQTEEELERAASTIKEVAQAVLL
notes: Endogenous protein found by proximity labelling/MS; also called Serine palmitoyltransferase 1

T1 sequence (Q63HN8 whole entry N1045D): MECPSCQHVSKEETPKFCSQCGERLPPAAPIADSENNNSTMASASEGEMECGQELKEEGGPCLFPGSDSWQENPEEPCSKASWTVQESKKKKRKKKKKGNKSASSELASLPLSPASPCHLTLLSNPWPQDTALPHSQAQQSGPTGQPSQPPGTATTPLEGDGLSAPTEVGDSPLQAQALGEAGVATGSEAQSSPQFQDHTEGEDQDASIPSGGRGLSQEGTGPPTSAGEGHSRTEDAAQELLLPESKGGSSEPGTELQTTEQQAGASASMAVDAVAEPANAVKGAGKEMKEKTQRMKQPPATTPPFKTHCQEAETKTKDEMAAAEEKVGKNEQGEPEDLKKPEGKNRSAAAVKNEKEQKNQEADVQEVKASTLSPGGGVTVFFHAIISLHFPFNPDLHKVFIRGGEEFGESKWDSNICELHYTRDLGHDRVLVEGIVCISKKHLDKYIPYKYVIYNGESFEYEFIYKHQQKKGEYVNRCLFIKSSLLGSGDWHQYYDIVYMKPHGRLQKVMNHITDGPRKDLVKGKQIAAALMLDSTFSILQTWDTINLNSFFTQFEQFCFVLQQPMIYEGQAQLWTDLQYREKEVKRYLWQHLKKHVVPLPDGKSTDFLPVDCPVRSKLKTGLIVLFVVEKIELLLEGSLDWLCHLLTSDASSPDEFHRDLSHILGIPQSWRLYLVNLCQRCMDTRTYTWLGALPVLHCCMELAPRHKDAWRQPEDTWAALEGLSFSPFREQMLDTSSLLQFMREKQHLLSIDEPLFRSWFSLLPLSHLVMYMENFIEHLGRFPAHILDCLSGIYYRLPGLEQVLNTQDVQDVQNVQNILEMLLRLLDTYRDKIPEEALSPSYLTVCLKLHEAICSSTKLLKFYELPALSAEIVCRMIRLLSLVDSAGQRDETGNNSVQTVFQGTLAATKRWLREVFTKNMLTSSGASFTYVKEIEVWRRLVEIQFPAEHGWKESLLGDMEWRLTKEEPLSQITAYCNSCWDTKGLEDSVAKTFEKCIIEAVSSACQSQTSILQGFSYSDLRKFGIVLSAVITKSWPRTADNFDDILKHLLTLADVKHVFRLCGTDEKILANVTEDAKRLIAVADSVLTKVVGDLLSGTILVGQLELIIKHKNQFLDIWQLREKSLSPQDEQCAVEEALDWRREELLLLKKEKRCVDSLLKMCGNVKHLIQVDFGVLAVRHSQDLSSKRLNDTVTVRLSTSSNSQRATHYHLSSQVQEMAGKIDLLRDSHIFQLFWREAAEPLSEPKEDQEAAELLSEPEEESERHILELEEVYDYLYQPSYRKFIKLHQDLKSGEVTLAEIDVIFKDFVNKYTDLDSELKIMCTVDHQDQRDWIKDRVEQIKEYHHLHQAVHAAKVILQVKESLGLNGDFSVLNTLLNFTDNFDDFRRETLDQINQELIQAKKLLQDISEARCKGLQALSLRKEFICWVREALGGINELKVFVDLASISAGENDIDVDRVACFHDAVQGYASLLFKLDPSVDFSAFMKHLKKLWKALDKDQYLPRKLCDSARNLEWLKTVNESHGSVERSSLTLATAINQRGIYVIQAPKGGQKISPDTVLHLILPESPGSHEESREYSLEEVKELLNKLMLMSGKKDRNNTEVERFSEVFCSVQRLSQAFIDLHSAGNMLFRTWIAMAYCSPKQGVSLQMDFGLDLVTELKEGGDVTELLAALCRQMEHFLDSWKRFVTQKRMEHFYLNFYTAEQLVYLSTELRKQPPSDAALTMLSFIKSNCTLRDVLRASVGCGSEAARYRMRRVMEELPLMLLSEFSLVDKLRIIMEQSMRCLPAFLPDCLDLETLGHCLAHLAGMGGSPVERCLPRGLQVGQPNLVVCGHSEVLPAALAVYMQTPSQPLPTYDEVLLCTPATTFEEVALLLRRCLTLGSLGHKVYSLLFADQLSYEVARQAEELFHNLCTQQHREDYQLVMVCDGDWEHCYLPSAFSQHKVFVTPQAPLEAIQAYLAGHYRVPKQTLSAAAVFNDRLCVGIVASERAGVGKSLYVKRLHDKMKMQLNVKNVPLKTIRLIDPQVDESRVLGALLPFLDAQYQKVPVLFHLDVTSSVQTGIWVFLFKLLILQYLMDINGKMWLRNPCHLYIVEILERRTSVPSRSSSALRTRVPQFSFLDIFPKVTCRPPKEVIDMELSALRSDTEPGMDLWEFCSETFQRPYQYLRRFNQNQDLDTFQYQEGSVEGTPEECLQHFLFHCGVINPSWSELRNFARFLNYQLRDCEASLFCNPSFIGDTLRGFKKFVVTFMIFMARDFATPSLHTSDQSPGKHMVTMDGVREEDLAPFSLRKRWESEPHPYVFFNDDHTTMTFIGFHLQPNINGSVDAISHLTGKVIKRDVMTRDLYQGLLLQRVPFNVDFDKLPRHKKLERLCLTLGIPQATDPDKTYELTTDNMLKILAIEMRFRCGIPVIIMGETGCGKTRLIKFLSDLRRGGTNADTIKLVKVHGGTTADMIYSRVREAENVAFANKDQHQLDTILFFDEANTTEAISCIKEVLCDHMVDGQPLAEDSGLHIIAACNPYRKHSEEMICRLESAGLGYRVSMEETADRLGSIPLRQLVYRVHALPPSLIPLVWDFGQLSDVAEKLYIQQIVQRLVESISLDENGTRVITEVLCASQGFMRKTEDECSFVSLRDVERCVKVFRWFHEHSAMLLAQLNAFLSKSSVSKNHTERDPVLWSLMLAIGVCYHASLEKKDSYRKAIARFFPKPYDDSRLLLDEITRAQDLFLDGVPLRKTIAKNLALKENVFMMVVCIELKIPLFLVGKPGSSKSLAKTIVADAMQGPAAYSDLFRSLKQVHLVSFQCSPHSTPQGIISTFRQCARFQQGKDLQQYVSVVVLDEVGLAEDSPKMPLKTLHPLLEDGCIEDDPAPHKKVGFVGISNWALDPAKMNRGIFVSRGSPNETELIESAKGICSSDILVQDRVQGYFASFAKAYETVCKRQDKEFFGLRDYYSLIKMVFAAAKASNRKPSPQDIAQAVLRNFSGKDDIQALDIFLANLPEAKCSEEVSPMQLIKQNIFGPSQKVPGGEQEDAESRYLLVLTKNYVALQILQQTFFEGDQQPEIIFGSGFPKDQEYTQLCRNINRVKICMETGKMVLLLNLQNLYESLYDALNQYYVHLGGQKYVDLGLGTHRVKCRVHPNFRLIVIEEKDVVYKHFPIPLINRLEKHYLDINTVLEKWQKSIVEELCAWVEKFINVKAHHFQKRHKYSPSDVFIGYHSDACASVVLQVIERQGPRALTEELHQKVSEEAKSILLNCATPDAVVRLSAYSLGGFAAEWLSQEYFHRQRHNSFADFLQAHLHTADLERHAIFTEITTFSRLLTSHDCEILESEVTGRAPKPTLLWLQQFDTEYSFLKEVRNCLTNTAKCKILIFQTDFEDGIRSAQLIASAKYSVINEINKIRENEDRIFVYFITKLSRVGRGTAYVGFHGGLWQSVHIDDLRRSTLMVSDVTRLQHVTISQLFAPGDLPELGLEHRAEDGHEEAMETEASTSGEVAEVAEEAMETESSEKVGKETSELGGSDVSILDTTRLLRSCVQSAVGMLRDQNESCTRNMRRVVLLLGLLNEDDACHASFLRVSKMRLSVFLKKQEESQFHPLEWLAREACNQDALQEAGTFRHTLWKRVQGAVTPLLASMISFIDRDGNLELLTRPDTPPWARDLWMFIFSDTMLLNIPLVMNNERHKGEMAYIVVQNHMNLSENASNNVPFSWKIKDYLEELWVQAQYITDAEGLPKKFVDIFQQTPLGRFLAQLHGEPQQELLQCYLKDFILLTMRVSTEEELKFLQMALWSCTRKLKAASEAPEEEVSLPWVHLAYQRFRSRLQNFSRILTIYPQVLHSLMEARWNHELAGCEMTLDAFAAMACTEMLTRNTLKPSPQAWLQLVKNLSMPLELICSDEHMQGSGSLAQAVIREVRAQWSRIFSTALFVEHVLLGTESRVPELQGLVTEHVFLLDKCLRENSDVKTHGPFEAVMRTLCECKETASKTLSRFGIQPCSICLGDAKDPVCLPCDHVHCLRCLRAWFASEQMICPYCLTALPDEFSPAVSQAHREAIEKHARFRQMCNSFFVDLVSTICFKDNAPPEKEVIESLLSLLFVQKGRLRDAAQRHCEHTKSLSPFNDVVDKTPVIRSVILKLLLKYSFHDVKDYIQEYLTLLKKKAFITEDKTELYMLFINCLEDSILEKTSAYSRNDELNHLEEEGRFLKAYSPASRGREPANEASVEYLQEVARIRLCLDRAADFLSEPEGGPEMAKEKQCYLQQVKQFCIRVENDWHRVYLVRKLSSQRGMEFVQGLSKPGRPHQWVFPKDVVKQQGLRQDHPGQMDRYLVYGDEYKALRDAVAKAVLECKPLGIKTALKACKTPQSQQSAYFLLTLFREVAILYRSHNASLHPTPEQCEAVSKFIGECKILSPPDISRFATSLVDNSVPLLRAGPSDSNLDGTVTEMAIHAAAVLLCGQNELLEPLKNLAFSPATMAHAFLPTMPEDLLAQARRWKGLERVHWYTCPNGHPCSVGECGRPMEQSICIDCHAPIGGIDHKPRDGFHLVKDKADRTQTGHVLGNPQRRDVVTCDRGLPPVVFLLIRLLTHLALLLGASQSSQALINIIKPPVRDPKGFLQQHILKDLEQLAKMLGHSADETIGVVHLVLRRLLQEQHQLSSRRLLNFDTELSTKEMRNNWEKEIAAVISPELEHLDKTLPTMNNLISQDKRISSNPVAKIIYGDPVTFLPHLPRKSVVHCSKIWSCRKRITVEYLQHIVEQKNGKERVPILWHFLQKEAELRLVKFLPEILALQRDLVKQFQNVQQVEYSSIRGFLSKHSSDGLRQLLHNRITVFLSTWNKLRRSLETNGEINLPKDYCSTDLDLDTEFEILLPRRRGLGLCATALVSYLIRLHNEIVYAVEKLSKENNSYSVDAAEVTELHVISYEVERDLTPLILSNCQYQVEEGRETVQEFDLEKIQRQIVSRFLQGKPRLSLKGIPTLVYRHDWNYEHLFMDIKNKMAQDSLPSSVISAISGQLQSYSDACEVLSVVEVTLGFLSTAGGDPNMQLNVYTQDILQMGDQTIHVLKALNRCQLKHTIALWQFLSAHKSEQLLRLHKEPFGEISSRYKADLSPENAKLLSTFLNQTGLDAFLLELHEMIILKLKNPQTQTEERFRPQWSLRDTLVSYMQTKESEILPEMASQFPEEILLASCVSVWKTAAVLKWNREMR

This assay has as its target T1, RNF213-TurboID (Homo sapiens (Human), UniProt Q63HN8 1-5207).
T1 construct: Recombined into HeLa FlpIn-TRex RNF213-KO cells; proximity-labelling bait; also called C-Turbo; 3×-FLAG-RNF213-TurboID; not shown: 3×-FLAG tag; TurboID biotin ligase at the C-terminus
Description: TurboID proximity biotinylation, streptavidin recovery, MS, SAINT express. From the text:
Proteins were ranked as potential binding partners by using the SAINT express algorithm³⁶ Immunoblotting (FIG. 9A) and silver staining (FIG. 9B) confirmed that similar amounts of each sample were submitted for analysis. Relatively few proteins labelled by N-Turbo were labelled to an extent greater than their labeling by Control-Turbo (FIG. 9C). […] Among the other top candidates were the major K63-deubiquitinase and NF-κB regulator CYLD and its interacting protein SPATA2 (FIG. 2B, orange-colored arrows). […] Other top C-Turbo interactors included proteins involved in VEGF signaling, which is induced in hypoxia (FLII, MYOF^{39,40}), inflammation and atherosclerosis (MAP4K4, SPTLC1^{41,42}), lipotoxicity (SPTLC1, ALDH1B1^{43,44}), ischemia response (CPEB4⁴⁵), and stroke (SARS2⁴⁶). Top N-Turbo interactors included CYP51A1, which plays a crucial role in cholesterol metabolism and atherosclerosis⁴⁷.
Cells were cultured in standard media but with 10% tetracycline (Tet)-free FBS (Clonetech) for at least 1 week. Tet-free/biotin-free FBS was generated by incubating Tet-free FBS with sterile streptavidin beads overnight followed by centrifugation to remove the beads. N-Turbo, C-Turbo, and Turbo proteins were induced by adding 1 μg/ml Dox to cells for 36 hours. For the last ten min. of incubation, 500 μM of biotin was added to the medium. Labelling reactions was terminated by removing the medium and adding ice-cold PBS to plates, which were kept on ice. Lysates were collected in RIPA buffer without Na-deoxycholate, and biotin-labelled proteins were collected by incubating with high-capacity streptavidin agarose beads for 4 hours at 4° C.
As for B1, the binding result was “binds”.

Turning to B2, the binding result is “binds”.

For B3, the binding result is on record as “binds”.

With B4, the binding result was “binds”.

With B5, the binding result was “binds”.

B6: the binding result is given as “binds”.

The record behind these values is US20250025478A1 (published 2025).
